In the PETadex activity labels (doi:10.1101/2025.08.30.673199):

Substrate: PET
Test: Proxy for plastic degradation [Released monomer concentration (HPLC/LC-MS) (TPA+MHET+BHET)]
Conditions: pH 9

Protein	Proxy for plastic degradation [µM]
unnamed (protein) MKAPLFKLAAFTLGVSLSSVALATNPGGGGAGSNPDTGTGFPGVSSFSADGSFATTSGSAGLSCTVFRPSTLGANGLKHPIIVWGNGTTASPSTYSGILEHWASHGFVVIAANTSNAGTGQDMLNCVDYLTTQNNRSTGTYANKLDLNRIGAAGHSQGGGGTIMAGQDYRIKVTAPFQPYTIGLGHNSSSQSNQNGPMFLMTGSADTIASPTLNALPVYNRANVPVFWGELSGASHFEPMGSAGDFRGPSTAWFRYHLMDDASAEDTFYGSNCDLCTDNDWDVRRKGIN	870
unnamed (protein) MKAPLFKLAAFTLGVSLSSVALATNPGGGGAGSNPDTGTGFPGVSSFSADGSFATTSGSAGLSCTVFRPSTLGANGLKHPIIVWGNGTTASPSTYSGILEHWASHGFVVIAANTSNAGTGQDMLNCVDYLTTQNNRSTGTYANKLDLNRIGAAGHSQGGGGTIMAGQDYRIKVTAPFQPYTIGAGHNSSSQSNQNGPMFLMTGSADTIASPTLNALPVYNRANVPVFWGELSGASHFEPVGSAGDFRGPSTAWFRYHLMDDASAEDTFYGSNCDLCTDNDWDVRRKGIN	820
unnamed (protein) MKAPLFKLAAFTLGVSLSSVALATNPGGGGAGSNPDTGTGFPGVSSFSADGSFATTSGSAGLSCTVFRPSTLGANGLKHPIIVWGNGTTASPSTYSGILEHWASHGFVVIAANTSNAGTGQDMLNCVDYLTTQNNRSTGTYANKLDLNRIGAAGHSMGGGGTIMAGQDYRIKVTAPFQPYTIGLGHNSSSQSNQNGPMFLMTGSADTIASPTLNALPVYNRANVPVFWGELSGASHFEPVGSAGDFRGPSTAWFRYHLMDDASAEDTFYGSNCDLCTDNDWDVRRKGIN	315
unnamed (protein) MKAPLFKLAAFTLGVSLSSVALATNPGGGGAGSNPDTGTGFPGVSSFSADGSFATTSGSAGLSCTVFRPSTLGANGLKHPIIVWGNGTTASPSTYSGILEHWASHGFVVIAANTSNAGTGQDMLNAVDYLTTQNNRSTGTYANKLDLNRIGAAGHSQGGGGTIMAGQDYRIKVTAPFQPYTIGLGHNSSSQSNQNGPMFLMTGSADTIASPTLNALPVYNRANVPVFWGELSGASHFEPVGSAGDFRGPSTAWFRYHLMDDASAEDTFYGSNCDLCTDNDWDVRRKGIN	250
unnamed (protein) MKAPLFKLAAFTLGVSLSSVALATNPGGGGAGSNPDTGTGFPGVSSFSADGSFATTSGSAGLSCTVFRPSTLGANGLKHPIIVWGNGYTASPSTYSGILEHWASHGFVVIAANTSNAGTGQDMLNCVDYLTTQNNRSTGTYANKLDLNRIGAAGHSQGGGGTIMAGQDYRIKVTAPFQPYTIGLGHNSSSQSNQNGPMFLMTGSADTIASPTLNALPVYNRANVPVFWGELSGASHFEPVGSAGDFRGPSTAWFRYHLMDDASAEDTFYGSNCDLCTDNDWDVRRKGIN	345
unnamed (protein) MKAPLFKLAAFTLGVSLSSVALATNPGGGGAGSNPDTGTGFPGVSSFSADGSFATTSGSAGLSCTVFRPSTLGANGLKHPIIVWGNGTTASPSTYSGILEHWASHGFVVIAANTSNAGTGQDMLNCVDYLTTQNNRSTGTYANKLDLNRIGAAGHSQGGGGTIMAGQDYRIKVTAPFQPYTIGLGHNSSSQSNQNGPMFLMTGSADTIASPTLNALPVYNRANVPVFWGELSGASHFEPVGSAGDFRGPSTAWFRYHLMDDASAEDTFYGSNADLCTDNDWDVRRKGIN	10
unnamed (protein) MKAPLFKLAAFTLGVSLSSVALATNPGGGGAGSNPDTGTGFPGVSSFSADGSFATTSGSAGLSCTVFRPSTLGANGLKHPIIVWGNGTTASPSTYSGILEHWASHGFVVIAANTSNAGTGQDMLNCVDYLTTQNNRSTGTYANKLDLNRIGAAGHSQGGGGTIMAGQDYRIKVTAPFQPWTIGLGHNSSSQSNQNGPMFLMTGSADTIASPTLSALPIYNRANVPVFWGELSGASHFEPVGSAGDFRGPSTAWFRYHLMDDASAEDTFYGSNCDLCTDNDWDVRRKGIN	105
unnamed (protein) MKAPLFKLAAFTLGVSLSSVALATNPGGGGAGSNPDTGTGFPGVSSFSADGSFATTSGSAGLSCTVFRPSTLGANGLKHPIIVWGNGTTASPSTYSGILEHWASHGFVVIAANTSNAGTGQDMLNCVDYLTTQNNRSTGTYANKLDLNRIGAAGHSQGGGGTIMAGQDYRIKVTAPFQPYTIGLGHASSSQSNQNGPMFLMTGSADTIASPTLNALPVYNRANVPVFWGELSGASHFEPVGSAGDFRGPSTAWFRYHLMDDASAEDTFYGSNCDLCTDNDWDVRRKGIN	920
unnamed (protein) MKAPLFKLAAFTLGVSLSSVALATNPGGGGAGSNPDTGTGFPGVSSFSADGSFATTSGSAGLSCTVFRPSTLGANGLKHPIIVWGNGTTASPSTYSGILEHWASHGFVVIAANTSNAGTGQDMLNCVDYLTTQNNRSTGTYANKLDLNRIGAAGHSQGGGGTIMAGQDYRIKVTAPFQPYTIGLGHNSSSQSNQNGPMFLMTGSAATIASPTLNALPVYNRANVPVFWGELSGASHFEPVGSAGDFRGPSTAWFRYHLMDDASAEDTFYGSNCDLCTDNDWDVRRKGIN	10
unnamed (protein) MKAPLFKLAAFTLGVSLSSVALATNPGGGGAGSNPDTGTGFPGVSSFSADGSFATTSGSAGLSCTVFRPSTLGANGLKHPIIVWGNGTTASPSTYSGILEHWASHGFVVIAANTSNAGTGQDMLNCVDYLTTQNNRSTGTYANKLDLNRIGAAGHSQGGGGTIMAGQDYRIKVTAPFQPFTIGLGHNSSSQSNQNGPMFLMTGSADTIASPTLNALPVYNRANVPVFWGELSGASHFEPVGSAGDFRGPSTAWFRYHLMDDASAEDTFYGSNCDLCTDNDWDVRRKGIN	375
unnamed (protein) MKAPLFKLAAFTLGVSLSSVALATNPGGGGAGSNPDTGTGFPGVSSFSADGSFATTSGSAGLSCTVFRPSTLGANGLKHPIIVWGNGTTASPSTYSGILEHWASHGFVVIAANTSNAGTGQDMLNCVDYLTTQNNRSTGTYANKLDLNRIGAAGHSQGGGGTIMAGQDYRIKVTAPFQPYTIGLGHNSSSQSNQNGPMFLMTGSADTIASPTLNALPVYNRANVPVFWGELSGASHFEPVGSAGDFRGPSTAWFRYHLMDDASAEDTFYGSNCDLCTDNDWDVRRKGIN	1020
unnamed (protein) MKAPLFKLAAFTLGVSLSSVALATNPGGGGAGSNPDTGTGFPGVSSFSADGSFATTSGSAGLSCTVFRPSTLGANGLKHPIIVWGNGTTASPSTYSGILEHWASHGFVVIAANTSNAGTGQDMLNCVDYLTTQNNRSTGTYANKLDLNRIGAAGHSQGGGGTIMAGQDYRIKVTAPFQPYTIGLGANSSSQSNQNGPMFLMTGSADTIASPTLNALPVYNRANVPVFWGELSGASHFEPVGSAGDFRGPSTAWFRYHLMDDASAEDTFYGSNCDLCTDNDWDVRRKGIN	120
unnamed (protein) MKAPLFKLAAFTLGVSLSSVALATNPGGGGAGSNPDTGTGFPGVSSFSADGSFATTSGSAGLSCTVFRPSTLGANGLKHPIIVWGNGTTASPSTYSGILEHWASHGFVVIAANTSNAGTGQDMLNCVDYLTTQNNRSTGTYANKLDLNRIGAAGHSQGGGGTIMAGQDYRIKVTAPFQPYTIGLGHNSSSQSNQNGPMFLMTGSADTIASPTLNALPVYNRANVPVFWGELSGASHIEPMGSAGDFRGPSTAWFRYHLMDDASAEDTFYGSNCDLCTDNDWDVRRKGIN	600
unnamed (protein) MKAPLFKLAAFTLGVSLSSVALATNPGGGGAGSNPDTGTGFPGVSSFSADGSFATTSGSAGLSCTVFRPSTLGANGLKHPIIVWGNGTTASPSTYSGILEHWASHGFVVIAANTSNAGTGQDMLNCVDYLTTQNNRSTGTYANKLDLNRIGAAGHSQGGGGTIMAGQDYRIKVTAPFQPYTIGLAHNSSSQSNQNGPMFLMTGSADTIASPTLNALPVYNRANVPVFWGELSGASHFEPVGSAGDFRGPSTAWFRYHLMDDASAEDTFYGSNCDLCTDNDWDVRRKGIN	540
unnamed (protein) MKAPLFKLAAFTLGVSLSSVALATNPGGGGAGSNPDTGTGFPGVSSFSADGSFATTSGSAGLSCTVFRPSTLGANGLKHPIIVWGNGTTASPSTYSGILEHWASHGFVVIAANTSNAGTGQDMLNCVDYLTTQNNRSTGTYANKLDLNRIGAAGHSQGGGGTIMAGQDYRIKVTAPFQPWTIGLGHNSSSQSNQNGPMFLMTGSADTIASPTLHALPFYNRANVPVFWGELSGASHFEPVGSAGDFRGPSTAWFRYHLMDDASAEDTFYGSNCDLCTDNDWDVRRKGIN	85
unnamed (protein) MKAPLFKLAAFTLGVSLSSVALATNPGGGGAGSNPDTGTGFPGVSSFSADGSFATTSGSAGLSCTVFRPSTLGANGLKHPIIVWGNGTTASPSTYSGILEHWASHGFVVIAANTSNAGTGQDMLNCVDYLTTQNNRSTGTYANKLDLNRIGAAGHAQGGGGTIMAGQDYRIKVTAPFQPYTIGLGHNSSSQSNQNGPMFLMTGSADTIASPTLNALPVYNRANVPVFWGELSGASHFEPVGSAGDFRGPSTAWFRYHLMDDASAEDTFYGSNCDLCTDNDWDVRRKGIN	10
